Measurements as given in patent publication US12312412 (dated 2025).
Numbering of substitutions follows the chain as printed. Names and notes keep the numbering of the source.

B1: MA 10-H1 CC (T9K) (antibody, V domains shown)
VH: EVQLVESGGGLVQPGGSLRLSCAASGFTFSNAWMSWVRQAPGKCLEWVGRITSGIYGGTTDYAAPVKGRFTISRDDSKNTLYLQMNSLKTEDTAVYYCTTPSYSGSYYNYFSVMDVWGQGTTVTVSS
VL: DIQMTQSPSSLSASVGDRVTITCRTSQSISSYLNWYQQKPGRAPKLLIFAASSLQSGVPSRFSGSGSGTDFTLTISSLQPEDFATYYCQQTYSMPFTFGCGTKVDIK
B2: MA 03-G10_AS CC (N3H) (antibody, V domains shown)
VH: EVQLLESGGGLVQPGGSLRLSCAASGFTFSSYAMSWVRQAPGKCLEWVSAISGSGGGTYYAASVKGRFTISRDNSKNTLYLQMSSLRAEDTAVYYCATGKGVHLGFDYWGQGTLVTVSS
VL: SYVLTQPPSVSVAPGQTARITCGGNNIGSKSVHWYQQKPGQAPVMVVYDDNDRPSGIPERFSGSNSGNTATLTISRVEAGDEADYYCQVWDYSGQRQVFGCGTKLTVL
B3: MA 09-C7 CC (K9T) (antibody, V domains shown)
VH: QVTLKESGPALVKPTQTLTLTCTFSGFSFTTHKMGVDWIRQPPGKCLEWLAEIHSEDDKRYSPSLQSRLTITKDTSKNQVVLTMTNMDPVDTATYYCAYRRYNWNYENWFDPWGQGTLVTVSS
VL: B1 VL with T25A, S31N, L33F, R42K, F49Y, T91S, S93I, M94T, D105E
B4: MA 09-G10 CC (C4K) (antibody, V domains shown)
VH: B3 VH with V2I, A10T, E52G, S55I, E56Y
VL: DIQMTQSPSSLSASVGDRVTITCQASQDISNYFNWYQQKPGKAPKLLIYAASSLQSGVPSRFSGSGSGTDFTLTISSLQPEDFATYYCQQSYITPFTFGCGTKVEIK
B5: MA 09-H10 CC (B6N) (antibody, V domains shown)
VH: B3 VH with V2I, A10T, E52L, H54Y, S55W, E56N
VL: B4 VL with F33L, S65R, I93T, T94P, F96T
B6: MA 09-E2 CC (V8T) (antibody, V domains shown)
VH: B1 VH with T52K, G54K, I55T, Y82F
VL: B1 VL with S56G, T91S, M94S, D105E
B7: MA 98-C7 CC (Y8P) (antibody, V domains shown)
VH: B2 VH with Y32H, A50S, S84N
VL: B2 VL with G94P, Q95L, Q97H
B8: MA 09-G11 CC (Y9Q) (antibody, V domains shown)
VH: B3 VH with V2I, A10M, E52L, H54Y, S55W, E56N
VL: B4 VL with Q24R, D28F, N31S, F33L, S65R, I93Q, T94S, F96T
B9: MA 81-B9 CC (U4L) (antibody, V domains shown)
VH: QVQLQESGPGLVKPSETLSLTCTVSGDSISSSRYYWGWIRQPPGKCLEWIGSIYYSGSTYYNPSLKSRVTISVDTSKNQFSLKLSSVTAADTAVYYCARGIFGVITYFDYWGQGTLVTVSS
VL: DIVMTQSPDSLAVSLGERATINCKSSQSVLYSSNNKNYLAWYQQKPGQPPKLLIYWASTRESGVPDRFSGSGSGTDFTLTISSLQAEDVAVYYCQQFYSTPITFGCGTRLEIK
B10: MA SG-F28 CC (D9R) (antibody, V domains shown)
VH: QVQLQESGPGLVKPSQTLSLTCTVSGDSISSNPYYWSWIRQHPGKCLEWIGYISYSGITNYNPSLKSRVTMSVDTSKNQFSLKLTSLTAADTAVYYCAREKMWFGVLNYYYGMDVWGQGTTVTVSS
VL: DIVMTQTPLSLPVTPGEPASISCRSSQSLLHRSGYNYLDWYLQKPGQSPQLLIYLGSNRASGVPDRFSGSGSGTDFTLKISRVEAGDVGVYYCMQALQTPWTFGCGTKVEIK
B11: MA 09-F12 CC (D1U) (antibody, V domains shown)
VH: B3 VH with V2I, E52L, H54Y, S55W, E56N
VL: B4 VL with F33L, S65R, I93Y, T94Y, F96T, T97L
B12: MA 98-G12_AS CC (Q4Z) (antibody, V domains shown)
VH: B2 VH with Y32H, Y60N, S84N, V93A, A97V
VL: B2 VL with S66F, T73I, S93F, G94S, Q95M, R96T, Q97H
B13: MA 88-B3-F9 CC (Y4E) (antibody, V domains shown)
VH: QVQLVESGGGLVKPGGSLRLSCAASGFTFSDYYMSWIRQAPGKCLEWVSYISKSSYTVTYADAVKGRFTISRDNAKNSLYLQMNSLRAEDTAVYYCATYNYGHFDYWGQGTLVTVSS
VL: SYVLTQPPSVSVAPGQTARITCGGNNIGSKSVHWYQQKPGQAPVLVVYDDADRPSGIPERFSGSNSGNTATLTISRVEAGDEADYYCQVWDASAGYGVVFGCGTKLTVL
B14: MA 09-F11 CC (L6Q) (antibody, V domains shown)
VH: B3 VH with V2I, A10M, E52L, H54Y, S55W, E56N
VL: B4 VL with S9D, F33L, I93M, T94W, F96T, T97I
B15: MA 09-H11 CC (I8L) (antibody, V domains shown)
VH: B3 VH with V2I, A10T, E52L, H54Y, S55W, E56N
VL: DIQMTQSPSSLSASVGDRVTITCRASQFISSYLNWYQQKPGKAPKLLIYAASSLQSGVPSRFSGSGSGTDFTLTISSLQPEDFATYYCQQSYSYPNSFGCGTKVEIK
B16: MA 03-D8 AS CC (L7E) (antibody, V domains shown)
VH: B2 VH with Y32H, A50T, S84N
VL: B2 VL with S66F, T73I, S93R, G94T, Q95L, R96D, Q97W
B17: MA 10-B5 CC (H6H) (antibody, V domains shown)
VH: B1 VH with T52R, G54R, I55S, Y82F
VL: B1 VL with S56G, D105E
B18: MA 10-G10 AS CC (T1I) (antibody, V domains shown)
VH: B2 VH with Y32H, Y60N, S84N
VL: B2 VL with S93V, G94A, Q95P, Q97H
B19: MA 03-E7_AS CC (L6M) (antibody, V domains shown)
VH: B2 VH with L11V, G16R, Y32H, V64G, S84N, V93A, A97V
VL: B2 VL with S93N, G94M, Q95N, R96V, Q97W
B20: MA 86-A4 CC (K2W) (antibody, V domains shown)
VH: QVQLVESGGGVVQPGRSLRLSCAASGFTFSTYGMHWVRQAPGKCLEWVAVISYDASNKYYAESVKGRFTISRDNSKNTLYLQMNSLRAEDTAVYYCARGQLLTGYWGQGTLVTVSS
VL: DIQMTQSPSSLSASVGDRVTITCRASQGISNYLAWYQQKPGKVPKLLIYAASTLQSGVPSRFSGSGSGTDFTLTISSLQPEDFATYYCQKYNSAPFTFGCGTKVEIK
B21: MA 10-D3 CC (O6B) (antibody, V domains shown)
VH: B1 VH with G54S, I55R, Y82F
VL: B1 VL with S56G
B22: MA 10-D6 CC (V6Z) (antibody, V domains shown)
VH: B1 VH with Q13K, T52L, S53N, G54N, I55A
VL: B1 VL with S56G
B23: MA 86-A4-N-F5 CC (M4H) (antibody, V domains shown)
VH: B20 VH with S56E, N57T, K58V, Y59K
VL: B20 VL with F83V
B24: MA 03-E11 AS CC (G2B) (antibody, V domains shown)
VH: B2 VH with Y32H, Y60N, S84N, V93A, A97V
VL: B2 VL with S93Y, G94S, Q95N, Q97A
B25: MA 10-G2 CC (T1S) (antibody, V domains shown)
VH: B1 VH with T52L, G54M, I55H
VL: B1 VL with Y36F, R42K

The binders below were run against MAGEB2 peptide … / HLA-A*02:01 / b2m (human) (assay: FACS).

Row | Binder | Kd
1 | B1 | 1.2 nM
2 | B2 | 0.9 nM
3 | B3 | 0.9 nM
4 | B4 | 0.8 nM
5 | B5 | 0.6 nM
6 | B6 | 0.7 nM
7 | B7 | 0.7 nM
8 | B8 | 0.6 nM
9 | B9 | 18.8 nM
10 | B10 | 76.8 nM
11 | B11 | 0.5 nM
12 | B12 | 0.9 nM
13 | B13 | 74.1 nM
14 | B14 | 0.6 nM
15 | B15 | 0.5 nM
16 | B16 | 0.5 nM
17 | B17 | 0.7 nM
18 | B18 | 1.7 nM
19 | B19 | 0.5 nM
20 | B20 | 35.5 nM
21 | B21 | 1.1 nM
22 | B22 | 0.7 nM
23 | B23 | 51.8 nM
24 | B24 | 4.2 nM
25 | B25 | 1 nM
